Measured values: the supplement of paper PMC10065799, “High-throughput profiling of sequence recognition by tyrosine kinases and SH2 domains using bacterial peptide display” (eLife, 2023)

biological target: EPHB1 (UniProt P54762); test: phosphorylation enrichment, bacterial display (enrichment ratio); higher = better substrate or ligand; peptides without Tyr show the background
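Wherever SH2 binding enrichment of the phosphorylated peptide, bacterial display is given: peptide library displayed on the E. coli surface as eCPX fusions, selected cells deep-sequenced, score is each peptide's frequency after selection divided by its frequency in the input.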
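Wherever phosphorylation enrichment, bacterial display is given: 11-residue human phosphosite peptides and single-mutation variants displayed on the E. coli surface, counted by deep sequencing, each peptide's frequency after selection divided by its frequency in the unselected input library; frequency after pTyr selection over input frequency; kinase dosed for 20-30% of maximal phosphorylation in three min.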

Chain of EPHB1 (P54762 whole entry, looked up, the tested form may be a part): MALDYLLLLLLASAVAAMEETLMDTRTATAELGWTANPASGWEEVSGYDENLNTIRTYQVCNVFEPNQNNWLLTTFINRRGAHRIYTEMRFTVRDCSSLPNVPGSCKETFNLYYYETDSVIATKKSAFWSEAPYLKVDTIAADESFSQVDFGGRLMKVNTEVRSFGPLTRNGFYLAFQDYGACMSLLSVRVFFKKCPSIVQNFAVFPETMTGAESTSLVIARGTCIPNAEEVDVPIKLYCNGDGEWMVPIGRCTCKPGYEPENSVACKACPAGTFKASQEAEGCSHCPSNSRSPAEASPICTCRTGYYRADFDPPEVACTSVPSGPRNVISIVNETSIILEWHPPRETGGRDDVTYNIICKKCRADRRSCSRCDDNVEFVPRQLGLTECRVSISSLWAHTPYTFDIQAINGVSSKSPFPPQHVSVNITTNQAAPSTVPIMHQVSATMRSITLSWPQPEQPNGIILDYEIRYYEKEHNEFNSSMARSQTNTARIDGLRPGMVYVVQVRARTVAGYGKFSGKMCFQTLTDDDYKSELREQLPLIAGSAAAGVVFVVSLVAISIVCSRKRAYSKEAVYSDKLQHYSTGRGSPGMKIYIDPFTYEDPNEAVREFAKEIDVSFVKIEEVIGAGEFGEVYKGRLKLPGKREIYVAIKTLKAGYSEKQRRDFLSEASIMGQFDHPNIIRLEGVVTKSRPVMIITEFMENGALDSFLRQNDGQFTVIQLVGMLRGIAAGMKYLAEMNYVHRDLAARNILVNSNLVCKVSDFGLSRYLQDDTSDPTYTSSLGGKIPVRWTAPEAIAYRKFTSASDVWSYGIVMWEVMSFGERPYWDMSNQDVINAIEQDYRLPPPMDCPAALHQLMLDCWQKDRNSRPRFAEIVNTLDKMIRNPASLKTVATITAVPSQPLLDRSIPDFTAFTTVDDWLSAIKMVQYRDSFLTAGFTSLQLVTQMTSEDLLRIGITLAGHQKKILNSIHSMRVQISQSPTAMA

Sequence	phosphorylation enrichment
MDQAEYQAKIQ [DHX58_Y518_R523Q]	0.563
LDAFIYNAAVL [GRIN2A_Y730_D731N]	1.3
VNTTLYEKFTY [TEK_Y1108]	1.92
AALVQYFMEHH [PTPN11_Y80_E76A_YF]	0.623
YGLQAYTKVKT [ALDH2_Y502_E504K]	0.445
LGQRIYQFIRS [DYRK1B_Y271_Q275R_YF]	9.19
CTLLPYYSAPV [DGKE_Y269_R273P]	2.04
GGGGGYNRSSG [FUS_Y232]	0.57
LRNRVYEVPVE [SLC26A3_Y756]	1.12
KRISCYEASYQ [PFKFB3_Y194]	0.522
CSHMFYGKQCC [ADAMTS16_Y1211_K1209M]	0.587
ARMTNYGLPRF [TSPAN12_Y138_YF]	0.424
RGDIFYTSKLW [AKR1C3_Y81_E77G]	0.964
MARDIYRASFF [ALK_Y1278_YF]	0.425
GYEEAYSVFKK [PAFAH1B1_Y28]	0.498
LEIETYPRLLD [KRT12_Y429_R430P]	0.802
LMQAEYWHDPI [PPT1_Y185_V181M]	1.2

Sequence	phosphorylation enrichment
RDSQLYAVDFE [MRPS34_Y34_YF]	1.04
IEDNKYTAREG [HCK_Y411_E410K]	0.588
ETMNKYDLSGR [MYEF2_Y164]	0.383
FQKNSYSEELR [LMNA_Y211_I210S]	0.363
DEEPPYRGPFC [SASH1_Y551]	0.509
VRQQDYKKVEE [HADHA_Y283_V282D]	0.517
AKLDIYKRKVE [VWA3B_Y918_N916D]	0.295
TLMNAYSSRCH [KIF11_Y231_S235C]	0.602
NNRVFYGNSDC [RS1_Y177_R182C]	0.489
GQETSYIEDNC [PAH_Y24]	0.83
QFLMKYVRSAS [ABCD1_Y337_W339R]	0.673
GSSEDYLHMVH [NIPBL_Y247]	0.475
IFHENYNAGTY [CFI_Y421]	0.656
RGDVIYKGFED [NFU1_Y194_G189R]	0.622
RAIELYNDKEK [OTULIN_Y244]	0.73
ISSLRYKLLEE [TRPC6_Y896_E897K]	0.514

biological target: c-Src SH2; test: SH2 binding enrichment of the phosphorylated peptide, bacterial display (enrichment ratio); higher = better substrate or ligand; peptides without Tyr show the background

Sequence	SH2 binding enrichment
MDQAEYQAKIQ [DHX58_Y518_R523Q]	0.412
LDAFIYNAAVL [GRIN2A_Y730_D731N]	0.5
VNTTLYEKFTY [TEK_Y1108]	3.14
AALVQYFMEHH [PTPN11_Y80_E76A_YF]	0.946
YGLQAYTKVKT [ALDH2_Y502_E504K]	1.85
LGQRIYQFIRS [DYRK1B_Y271_Q275R_YF]	2.21
CTLLPYYSAPV [DGKE_Y269_R273P]	1.53
GGGGGYNRSSG [FUS_Y232]	0.34
LRNRVYEVPVE [SLC26A3_Y756]	6.38
KRISCYEASYQ [PFKFB3_Y194]	0.667
CSHMFYGKQCC [ADAMTS16_Y1211_K1209M]	0.772
ARMTNYGLPRF [TSPAN12_Y138_YF]	0.505
RGDIFYTSKLW [AKR1C3_Y81_E77G]	0.55
MARDIYRASFF [ALK_Y1278_YF]	0.52
GYEEAYSVFKK [PAFAH1B1_Y28]	2.54
LEIETYPRLLD [KRT12_Y429_R430P]	0.498
LMQAEYWHDPI [PPT1_Y185_V181M]	0.983

Sequence	SH2 binding enrichment
RDSQLYAVDFE [MRPS34_Y34_YF]	0.701
IEDNKYTAREG [HCK_Y411_E410K]	0.573
ETMNKYDLSGR [MYEF2_Y164]	0.44
FQKNSYSEELR [LMNA_Y211_I210S]	0.413
DEEPPYRGPFC [SASH1_Y551]	0.657
VRQQDYKKVEE [HADHA_Y283_V282D]	0.414
AKLDIYKRKVE [VWA3B_Y918_N916D]	0.45
TLMNAYSSRCH [KIF11_Y231_S235C]	0.581
NNRVFYGNSDC [RS1_Y177_R182C]	0.613
GQETSYIEDNC [PAH_Y24]	0.68
QFLMKYVRSAS [ABCD1_Y337_W339R]	0.369
GSSEDYLHMVH [NIPBL_Y247]	0.465
IFHENYNAGTY [CFI_Y421]	0.625
RGDVIYKGFED [NFU1_Y194_G189R]	0.488
RAIELYNDKEK [OTULIN_Y244]	0.467
ISSLRYKLLEE [TRPC6_Y896_E897K]	0.513

biological target: SHP2-C SH2; test: as above

Sequence	SH2 binding enrichment
MDQAEYQAKIQ [DHX58_Y518_R523Q]	0.424
LDAFIYNAAVL [GRIN2A_Y730_D731N]	0.761
VNTTLYEKFTY [TEK_Y1108]	0.826
AALVQYFMEHH [PTPN11_Y80_E76A_YF]	1.42
YGLQAYTKVKT [ALDH2_Y502_E504K]	2.67
LGQRIYQFIRS [DYRK1B_Y271_Q275R_YF]	1.07
CTLLPYYSAPV [DGKE_Y269_R273P]	0.54
GGGGGYNRSSG [FUS_Y232]	0.503
LRNRVYEVPVE [SLC26A3_Y756]	0.936
KRISCYEASYQ [PFKFB3_Y194]	0.582
CSHMFYGKQCC [ADAMTS16_Y1211_K1209M]	0.827
ARMTNYGLPRF [TSPAN12_Y138_YF]	1.33
RGDIFYTSKLW [AKR1C3_Y81_E77G]	0.888
MARDIYRASFF [ALK_Y1278_YF]	0.76
GYEEAYSVFKK [PAFAH1B1_Y28]	1.25
LEIETYPRLLD [KRT12_Y429_R430P]	0.65
LMQAEYWHDPI [PPT1_Y185_V181M]	0.68

Sequence	SH2 binding enrichment
RDSQLYAVDFE [MRPS34_Y34_YF]	1.07
IEDNKYTAREG [HCK_Y411_E410K]	0.828
ETMNKYDLSGR [MYEF2_Y164]	0.639
FQKNSYSEELR [LMNA_Y211_I210S]	0.643
DEEPPYRGPFC [SASH1_Y551]	1.21
VRQQDYKKVEE [HADHA_Y283_V282D]	0.532
AKLDIYKRKVE [VWA3B_Y918_N916D]	0.732
TLMNAYSSRCH [KIF11_Y231_S235C]	0.726
NNRVFYGNSDC [RS1_Y177_R182C]	0.811
GQETSYIEDNC [PAH_Y24]	0.559
QFLMKYVRSAS [ABCD1_Y337_W339R]	0.927
GSSEDYLHMVH [NIPBL_Y247]	0.556
IFHENYNAGTY [CFI_Y421]	0.676
RGDVIYKGFED [NFU1_Y194_G189R]	0.634
RAIELYNDKEK [OTULIN_Y244]	0.746
ISSLRYKLLEE [TRPC6_Y896_E897K]	0.65

biological target: Grb2 SH2 (UniProt P62993); test: as above
Sequence (P62993 whole entry, looked up): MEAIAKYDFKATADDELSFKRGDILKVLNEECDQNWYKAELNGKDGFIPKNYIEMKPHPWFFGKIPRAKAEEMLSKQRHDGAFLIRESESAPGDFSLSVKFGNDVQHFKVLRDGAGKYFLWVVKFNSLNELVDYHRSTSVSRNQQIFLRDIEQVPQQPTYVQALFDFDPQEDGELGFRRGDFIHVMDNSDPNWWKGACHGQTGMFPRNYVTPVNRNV

Sequence	SH2 binding enrichment
MDQAEYQAKIQ [DHX58_Y518_R523Q]	0.744
LDAFIYNAAVL [GRIN2A_Y730_D731N]	0.927
VNTTLYEKFTY [TEK_Y1108]	0.764
AALVQYFMEHH [PTPN11_Y80_E76A_YF]	1.34
YGLQAYTKVKT [ALDH2_Y502_E504K]	0.811
LGQRIYQFIRS [DYRK1B_Y271_Q275R_YF]	1.38
CTLLPYYSAPV [DGKE_Y269_R273P]	0.71
GGGGGYNRSSG [FUS_Y232]	0.682
LRNRVYEVPVE [SLC26A3_Y756]	1.25
KRISCYEASYQ [PFKFB3_Y194]	0.67
CSHMFYGKQCC [ADAMTS16_Y1211_K1209M]	1.14
ARMTNYGLPRF [TSPAN12_Y138_YF]	0.887
RGDIFYTSKLW [AKR1C3_Y81_E77G]	0.919
MARDIYRASFF [ALK_Y1278_YF]	0.843
GYEEAYSVFKK [PAFAH1B1_Y28]	0.831
LEIETYPRLLD [KRT12_Y429_R430P]	0.826
LMQAEYWHDPI [PPT1_Y185_V181M]	0.999

Sequence	SH2 binding enrichment
RDSQLYAVDFE [MRPS34_Y34_YF]	1.37
IEDNKYTAREG [HCK_Y411_E410K]	0.924
ETMNKYDLSGR [MYEF2_Y164]	0.912
FQKNSYSEELR [LMNA_Y211_I210S]	0.847
DEEPPYRGPFC [SASH1_Y551]	1.06
VRQQDYKKVEE [HADHA_Y283_V282D]	1.02
AKLDIYKRKVE [VWA3B_Y918_N916D]	0.871
TLMNAYSSRCH [KIF11_Y231_S235C]	0.943
NNRVFYGNSDC [RS1_Y177_R182C]	1.16
GQETSYIEDNC [PAH_Y24]	1.05
QFLMKYVRSAS [ABCD1_Y337_W339R]	0.517
GSSEDYLHMVH [NIPBL_Y247]	0.743
IFHENYNAGTY [CFI_Y421]	0.788
RGDVIYKGFED [NFU1_Y194_G189R]	0.797
RAIELYNDKEK [OTULIN_Y244]	0.735
ISSLRYKLLEE [TRPC6_Y896_E897K]	0.742
